Experiments:
[1] = target: Histones; test: AtheNA, Ab 25 ug/ml
[2] = target: Centromere B (UniProt P07199); test: AtheNA, Ab 25 ug/ml
[3] = target: RNP (ribonucleoprotein); test: AtheNA, Ab 25 ug/ml
[4] = target: SSA; test: AtheNA, Ab 25 ug/ml
[5] = target: Scl-70 (UniProt P11387); test: AtheNA, Ab 25 ug/ml
[6] = target: Sm (Smith antigen); test: AtheNA, Ab 25 ug/ml
[7] = target: Jo-1 (UniProt P12081); test: AtheNA, Ab 25 ug/ml
[8] = target: SSB (UniProt P05455); test: AtheNA, Ab 25 ug/ml
[9] = target: Jo-1 (UniProt P12081); test: AtheNA, Ab 50 ug/ml
[10] = target: SSB (UniProt P05455); test: AtheNA, Ab 50 ug/ml
[11] = target: Histones; test: AtheNA, Ab 6.25 ug/ml
[12] = target: Centromere B (UniProt P07199); test: AtheNA, Ab 6.25 ug/ml
[13] = target: RNP (ribonucleoprotein); test: AtheNA, Ab 6.25 ug/ml
[14] = target: SSA; test: AtheNA, Ab 6.25 ug/ml
[15] = target: Scl-70 (UniProt P11387); test: AtheNA, Ab 6.25 ug/ml
[16] = target: Sm (Smith antigen); test: AtheNA, Ab 6.25 ug/ml
[17] = target: Jo-1 (UniProt P12081); test: AtheNA, Ab 6.25 ug/ml
[18] = target: SSB (UniProt P05455); test: AtheNA, Ab 6.25 ug/ml
[19] = target: Histones; test: AtheNA, Ab 12.5 ug/ml
[20] = target: Centromere B (UniProt P07199); test: AtheNA, Ab 12.5 ug/ml
[21] = target: RNP (ribonucleoprotein); test: AtheNA, Ab 12.5 ug/ml
[22] = target: SSA; test: AtheNA, Ab 12.5 ug/ml
[23] = target: Scl-70 (UniProt P11387); test: AtheNA, Ab 12.5 ug/ml
[24] = target: Sm (Smith antigen); test: AtheNA, Ab 12.5 ug/ml
[25] = target: Jo-1 (UniProt P12081); test: AtheNA, Ab 12.5 ug/ml
[26] = target: SSB (UniProt P05455); test: AtheNA, Ab 12.5 ug/ml
[27] = target: Histones; test: AtheNA, Ab 25 ug/ml; remark: listed apart in the source
[28] = target: Centromere B (UniProt P07199); test: AtheNA, Ab 25 ug/ml; remark: listed apart in the source
[29] = target: RNP (ribonucleoprotein); test: AtheNA, Ab 25 ug/ml; remark: listed apart in the source
[30] = target: SSA; test: AtheNA, Ab 25 ug/ml; remark: listed apart in the source
[31] = target: Scl-70 (UniProt P11387); test: AtheNA, Ab 25 ug/ml; remark: listed apart in the source
[32] = target: Sm (Smith antigen); test: AtheNA, Ab 25 ug/ml; remark: listed apart in the source
[33] = target: Jo-1 (UniProt P12081); test: AtheNA, Ab 25 ug/ml; remark: listed apart in the source
[34] = target: SSB (UniProt P05455); test: AtheNA, Ab 25 ug/ml; remark: listed apart in the source
[35] = target: Jo-1 (UniProt P12081); test: AtheNA, Ab 50 ug/ml; remark: listed apart in the source
[36] = target: SSB (UniProt P05455); test: AtheNA, Ab 50 ug/ml; remark: listed apart in the source
[37] = target: CH505w136.B29D8gp120 (HIV-1); test: direct-binding ELISA
[38] = target: CH505.M5D8gp120293F; test: direct-binding ELISA
[39] = target: CH505.M21D8gp120/293F; test: direct-binding ELISA
[40] = target: CH505w160.T2D8gp120 (HIV-1); test: direct-binding ELISA
[41] = target: CH505w160.C12D8gp120 (HIV-1); test: direct-binding ELISA
[42] = target: CH505w136.B8D8gp120 (HIV-1); test: direct-binding ELISA
[43] = target: CH505w160.C2D8gp120 (HIV-1); test: direct-binding ELISA
[44] = target: CH505.TF mutant gp120 M20 (HIV-1); test: direct-binding ELISA
[45] = target: CH505.M11D8gp120/293F; test: direct-binding ELISA
[46] = target: CH505w160.T4D8gp120/293F (HIV-1); test: direct-binding ELISA
[47] = target: CH505w136.B18D8gp120 (HIV-1); test: direct-binding ELISA
[48] = target: CH505w136.B20D8gp120 (HIV-1); test: direct-binding ELISA
[49] = target: CH505_w137V201B12.D11gp120 (HIV-1); test: direct-binding ELISA
[50] = target: CH505.M9D8gp120/293F; test: direct-binding ELISA
[51] = target: CH505w136.B10D8gp120 (HIV-1); test: direct-binding ELISA
[52] = target: CH505w160.C4D8gp120 (HIV-1); test: direct-binding ELISA
[53] = target: CH505_w137V209C12.D11gp120 (HIV-1); test: direct-binding ELISA
[54] = target: CH505w136.B27D8gp120 (HIV-1); test: direct-binding ELISA
[55] = target: CH505w160.A1D8gp120 (HIV-1); test: direct-binding ELISA
[56] = target: CH505w136.B12D8gp120 (HIV-1); test: direct-binding ELISA
[57] = target: CH505.TF mutant gp120 M8 (HIV-1); test: direct-binding ELISA
[58] = target: CH505w136.B2D8gp120/293F (HIV-1); test: direct-binding ELISA
[59] = target: CH505w136.B4D8gp120 (HIV-1); test: direct-binding ELISA
[60] = target: CH505w136.B5D8gp120 (HIV-1); test: direct-binding ELISA
[61] = target: CH505w136.B36D8gp120 (HIV-1); test: direct-binding ELISA
[62] = target: CH505.TF mutant gp120 M6 (HIV-1); test: direct-binding ELISA
[63] = target: CH505.M10D8gp120; test: direct-binding ELISA
[64] = target: CH505w160.D1D8gp120 (HIV-1); test: direct-binding ELISA
[65] = target: CH505w160.C14D8gp120 (HIV-1); test: direct-binding ELISA
[66] = target: CH505w160.D5D8gp120/293F (HIV-1); test: direct-binding ELISA
[67] = target: CH505.M19D8gp120; test: direct-binding ELISA
[68] = target: CH505.M7D8gp120/293F; test: direct-binding ELISA
[69] = target: CH505w136.B3D8gp120/293F (HIV-1); test: direct-binding ELISA
[70] = target: CH505w160.C11D8gp120 (HIV-1); test: direct-binding ELISA
[71] = target: CH505 TF loop D mutant M8 Env (pseudovirus) (HIV-1); test: cell-based or functional assay
[72] = target: CH505 TF loop D mutant M20 Env (pseudovirus) (HIV-1); test: cell-based or functional assay
[73] = target: CH505 TF loop D mutant M9 Env (pseudovirus) (HIV-1); test: cell-based or functional assay
[74] = target: CH505 TF loop D mutant M7 Env (pseudovirus) (HIV-1); test: cell-based or functional assay

Centromere B, sequence (P07199 whole entry): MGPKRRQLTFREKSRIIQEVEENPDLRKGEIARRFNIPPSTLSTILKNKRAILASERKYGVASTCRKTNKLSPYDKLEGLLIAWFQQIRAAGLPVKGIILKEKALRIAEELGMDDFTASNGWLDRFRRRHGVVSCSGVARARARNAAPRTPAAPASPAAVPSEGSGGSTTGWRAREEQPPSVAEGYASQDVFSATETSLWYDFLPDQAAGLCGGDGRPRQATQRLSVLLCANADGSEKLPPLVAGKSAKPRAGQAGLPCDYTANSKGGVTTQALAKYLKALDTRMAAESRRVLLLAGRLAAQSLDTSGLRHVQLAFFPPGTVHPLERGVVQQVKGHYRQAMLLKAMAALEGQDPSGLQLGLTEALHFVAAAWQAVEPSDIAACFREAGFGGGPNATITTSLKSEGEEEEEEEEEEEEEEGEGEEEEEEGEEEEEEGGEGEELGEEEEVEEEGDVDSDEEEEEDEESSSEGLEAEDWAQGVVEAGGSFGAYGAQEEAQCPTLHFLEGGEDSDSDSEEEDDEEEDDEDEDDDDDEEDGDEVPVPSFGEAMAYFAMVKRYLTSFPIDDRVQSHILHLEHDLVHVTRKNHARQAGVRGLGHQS
Jo-1, sequence (P12081 whole entry): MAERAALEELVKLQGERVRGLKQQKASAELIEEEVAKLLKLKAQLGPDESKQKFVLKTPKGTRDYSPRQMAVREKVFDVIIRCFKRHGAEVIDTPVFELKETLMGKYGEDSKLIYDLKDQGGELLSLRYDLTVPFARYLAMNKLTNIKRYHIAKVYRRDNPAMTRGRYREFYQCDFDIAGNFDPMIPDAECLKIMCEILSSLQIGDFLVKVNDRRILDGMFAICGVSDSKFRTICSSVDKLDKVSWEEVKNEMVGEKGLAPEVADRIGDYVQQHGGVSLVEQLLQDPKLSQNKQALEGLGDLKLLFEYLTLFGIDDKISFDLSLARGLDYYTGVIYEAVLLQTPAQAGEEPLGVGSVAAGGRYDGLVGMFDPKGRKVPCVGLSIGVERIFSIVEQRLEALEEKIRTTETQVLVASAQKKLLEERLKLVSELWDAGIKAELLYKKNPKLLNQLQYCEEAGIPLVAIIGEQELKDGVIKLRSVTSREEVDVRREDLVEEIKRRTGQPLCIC
Scl-70, sequence (P11387 whole entry): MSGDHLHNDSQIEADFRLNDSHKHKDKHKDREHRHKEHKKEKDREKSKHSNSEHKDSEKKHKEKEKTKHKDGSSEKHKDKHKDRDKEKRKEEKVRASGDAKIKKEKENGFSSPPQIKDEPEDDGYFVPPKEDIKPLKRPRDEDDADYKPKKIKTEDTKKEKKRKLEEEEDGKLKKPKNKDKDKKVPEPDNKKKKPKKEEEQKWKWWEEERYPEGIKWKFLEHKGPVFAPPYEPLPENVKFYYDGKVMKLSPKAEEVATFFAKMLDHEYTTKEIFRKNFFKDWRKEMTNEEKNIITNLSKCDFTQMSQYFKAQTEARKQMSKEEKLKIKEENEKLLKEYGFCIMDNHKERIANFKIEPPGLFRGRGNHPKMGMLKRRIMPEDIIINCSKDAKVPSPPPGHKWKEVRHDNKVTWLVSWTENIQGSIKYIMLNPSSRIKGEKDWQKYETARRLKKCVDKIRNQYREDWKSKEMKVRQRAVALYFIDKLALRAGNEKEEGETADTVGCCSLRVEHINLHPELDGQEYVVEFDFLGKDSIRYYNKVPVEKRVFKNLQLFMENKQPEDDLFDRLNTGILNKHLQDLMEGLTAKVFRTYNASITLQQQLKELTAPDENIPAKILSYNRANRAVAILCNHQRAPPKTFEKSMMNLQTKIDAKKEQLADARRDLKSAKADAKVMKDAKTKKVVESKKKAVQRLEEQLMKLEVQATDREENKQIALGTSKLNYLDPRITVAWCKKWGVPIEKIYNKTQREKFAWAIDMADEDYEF
SSB, sequence (P05455 whole entry): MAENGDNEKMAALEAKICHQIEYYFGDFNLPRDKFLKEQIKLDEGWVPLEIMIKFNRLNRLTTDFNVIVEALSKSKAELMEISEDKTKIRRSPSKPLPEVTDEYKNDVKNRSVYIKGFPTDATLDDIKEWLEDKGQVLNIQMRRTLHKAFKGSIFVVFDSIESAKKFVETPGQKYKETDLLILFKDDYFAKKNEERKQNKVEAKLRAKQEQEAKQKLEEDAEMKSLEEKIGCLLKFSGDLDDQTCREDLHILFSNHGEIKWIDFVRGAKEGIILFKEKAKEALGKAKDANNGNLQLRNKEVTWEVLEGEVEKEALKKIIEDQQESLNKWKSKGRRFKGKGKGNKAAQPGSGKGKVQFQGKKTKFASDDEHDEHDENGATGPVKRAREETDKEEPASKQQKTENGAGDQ

4E10 (antibody)
AtheNA signal (relative luminescence units) [1]: 24
AtheNA signal (relative luminescence units) [2]: 9
AtheNA signal (relative luminescence units) [3]: 20
AtheNA signal (relative luminescence units) [4]: 81
AtheNA signal (relative luminescence units) [5]: 4
AtheNA signal (relative luminescence units) [6]: 46
AtheNA signal (relative luminescence units) [7]: 206
AtheNA signal (relative luminescence units) [8]: 189
AtheNA signal (relative luminescence units) [9]: 190
AtheNA signal (relative luminescence units) [10]: 263
AtheNA signal (relative luminescence units) [11]: 6
AtheNA signal (relative luminescence units) [12]: 2
AtheNA signal (relative luminescence units) [13]: 3
AtheNA signal (relative luminescence units) [14]: 17
AtheNA signal (relative luminescence units) [15]: 1
AtheNA signal (relative luminescence units) [16]: 3
AtheNA signal (relative luminescence units) [17]: 113
AtheNA signal (relative luminescence units) [18]: 178
AtheNA signal (relative luminescence units) [19]: 7
AtheNA signal (relative luminescence units) [20]: 1
AtheNA signal (relative luminescence units) [21]: 3
AtheNA signal (relative luminescence units) [22]: 21
AtheNA signal (relative luminescence units) [23]: 0
AtheNA signal (relative luminescence units) [24]: 3
AtheNA signal (relative luminescence units) [25]: 131
AtheNA signal (relative luminescence units) [26]: 199
AtheNA signal (relative luminescence units) [27]: 10
AtheNA signal (relative luminescence units) [28]: 3
AtheNA signal (relative luminescence units) [29]: 3
AtheNA signal (relative luminescence units) [30]: 33
AtheNA signal (relative luminescence units) [31]: 1
AtheNA signal (relative luminescence units) [32]: 2
AtheNA signal (relative luminescence units) [33]: 160
AtheNA signal (relative luminescence units) [34]: 227
AtheNA signal (relative luminescence units) [35]: 227
AtheNA signal (relative luminescence units) [36]: 207

CH105 (antibody)
LogAUC [37]: 10.2
LogAUC [38]: 8.63
LogAUC [39]: 11.2
LogAUC [40]: 4.94
LogAUC [41]: 11.1
LogAUC [42]: 9.86
LogAUC [43]: 8.61
LogAUC [44]: 10.6
LogAUC [45]: 11.7
LogAUC [46]: 12.2
LogAUC [47]: 13.7
LogAUC [48]: 10.7
LogAUC [49]: 11
LogAUC [50]: 10.6
LogAUC [51]: 8.52
LogAUC [52]: 6.55
LogAUC [53]: 12.7
LogAUC [54]: 10.4
LogAUC [55]: 6.66
LogAUC [56]: 9.67
LogAUC [57]: 9.33
LogAUC [58]: 12.4
LogAUC [59]: 10.7
LogAUC [60]: 10.6
LogAUC [61]: 12.8
LogAUC [62]: 11.1
LogAUC [63]: 11.3
LogAUC [64]: 6.03
LogAUC [65]: 6.58
LogAUC [66]: 4.58
LogAUC [67]: 10.9
LogAUC [68]: 10.2
LogAUC [69]: 12
LogAUC [70]: 7.7

CH235.9 N30T (antibody)
fold increase of neutralization IC50 against CH235.9 [71]: 37 fold
neutralization IC50, TZM-bl pseudovirus assay [71]: 24.3 µg/mL
neutralization IC50, TZM-bl pseudovirus assay [72]: > 44 µg/mL
neutralization IC50, TZM-bl pseudovirus assay [73]: > 44 µg/mL
neutralization IC50, TZM-bl pseudovirus assay [74]: > 44 µg/mL

CH248 (antibody)
LogAUC [37]: 12.3
LogAUC [38]: 11
LogAUC [39]: 13.8
LogAUC [40]: 8.34
LogAUC [41]: 12.9
LogAUC [42]: 12.3
LogAUC [43]: 11.1
LogAUC [44]: 13.2
LogAUC [45]: 13.6
LogAUC [46]: 13.5
LogAUC [47]: 14.3
LogAUC [48]: 12.9
LogAUC [49]: 13.4
LogAUC [50]: 13
LogAUC [51]: 11.5
LogAUC [52]: 10.5
LogAUC [53]: 14.7
LogAUC [54]: 12.9
LogAUC [55]: 8.62
LogAUC [56]: 12.9
LogAUC [57]: 12.3
LogAUC [58]: 13.4
LogAUC [59]: 13.4
LogAUC [60]: 14.6
LogAUC [61]: 14.4
LogAUC [62]: 13.6
LogAUC [63]: 13.8
LogAUC [64]: 8.75
LogAUC [65]: 10.3
LogAUC [66]: 7.84
LogAUC [67]: 13.2
LogAUC [68]: 12.4
LogAUC [69]: 14
LogAUC [70]: 10.7

synagis (antibody)
AtheNA signal (relative luminescence units) [1]: 2
AtheNA signal (relative luminescence units) [2]: 2
AtheNA signal (relative luminescence units) [3]: 0
AtheNA signal (relative luminescence units) [4]: 11
AtheNA signal (relative luminescence units) [6]: 4
AtheNA signal (relative luminescence units) [7]: 4
AtheNA signal (relative luminescence units) [8]: 4
AtheNA signal (relative luminescence units) [11]: 3
AtheNA signal (relative luminescence units) [12]: 2
AtheNA signal (relative luminescence units) [13]: 3
AtheNA signal (relative luminescence units) [14]: 2
AtheNA signal (relative luminescence units) [15]: 2
AtheNA signal (relative luminescence units) [16]: 2
AtheNA signal (relative luminescence units) [17]: 1
AtheNA signal (relative luminescence units) [18]: 5
AtheNA signal (relative luminescence units) [19]: 3
AtheNA signal (relative luminescence units) [20]: 2
AtheNA signal (relative luminescence units) [21]: 3
AtheNA signal (relative luminescence units) [22]: 2
AtheNA signal (relative luminescence units) [23]: 3
AtheNA signal (relative luminescence units) [24]: 7
AtheNA signal (relative luminescence units) [25]: 6
AtheNA signal (relative luminescence units) [26]: 5
AtheNA signal (relative luminescence units) [27]: 5
AtheNA signal (relative luminescence units) [28]: 4
AtheNA signal (relative luminescence units) [29]: 4
AtheNA signal (relative luminescence units) [30]: 3
AtheNA signal (relative luminescence units) [31]: 2
AtheNA signal (relative luminescence units) [32]: 3
AtheNA signal (relative luminescence units) [33]: 2
AtheNA signal (relative luminescence units) [34]: 7

— US10450368
